From the supplement of paper PMC9732359
± gives the uncertainty stated by the source.

Test: protein stability index of a GFP-peptide fusion (yeast GPS) (PSI 1-4); higher = more stable; sorted into four equal gates, so the index is relative within each strain
In short: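 Tiled 17-residue yeast protein peptides were fused downstream of GFP in a plasmid that also expresses Cherry, and the pooled library was carried in yeast. Mid-log cultures in leucine-free medium were sorted into four equal gates by GFP/Cherry fluorescence ratio, and plasmids from each gate were PCR-amplified and Illumina-sequenced, with reads assigned to strains by barcodes. The protein stability index for each peptide was each gate's read frequency times its gate number, summed.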

Sequence | protein stability index (doa10∆) | protein stability index (pdr5∆) | protein stability index (san1∆) | protein stability index (ubr1∆)
YGKVYKAKRQINSGTNS [SSN3] | 2.23 ± 0.066 | 2.04 ± 0.058 | 2.49 ± 0.094 | 2.68 ± 0.053
YGQRAVLKFAAHTGATP [RPS0B] | 2.27 ± 0.055 | 2.88 ± 0.039 | 2.66 ± 0.046 | 2.66 ± 0.041
YGTENKDGEDIIFNYVP [CSL4] | 3.3 ± 0.14 | 3.21 ± 0.1 | 2.92 ± 0.085 | 3.12 ± 0.065
YGYPSYSTIRQLVYKRG [RPL7A] | 1.27 ± 0.061 | 1.52 ± 0.046 | 1.25 ± 0.12 | 1.41 ± 0.047
YGYWFDCRMGNFYIQYD [AAR2] | 2.51 ± 0.048 | 2.08 ± 0.048 | 1.93 ± 0.081 | 2.49 ± 0.034
YHFPIFNKYADPTLTTT [RPN4] | 2.05 ± 0.037 | 2.22 ± 0.048 | 2.24 ± 0.048 | 2.3 ± 0.036
YHGLYTNYEMSYWQKSY [LIN1] | 1.75 ± 0.046 | 2.08 ± 0.038 | 2.11 ± 0.055 | 2.17 ± 0.041
YIDIRTNNVLRKLGLLG [MTW1] | 1.49 ± 0.053 | 1.76 ± 0.069 | 1.64 ± 0.15 | 1.5 ± 0.056
YIDYSSKRYIPSVNDFV [RRP40] | 2.51 ± 0.048 | 2.83 ± 0.051 | 2.42 ± 0.1 | 2.6 ± 0.078
YIEDGRNPDIYTREFVE [NUT2] | 3.39 ± 0.066 | 3.38 ± 0.054 | 3.13 ± 0.044 | 3.33 ± 0.04
YIFCISRTIGMVVNGPI [SCL1] | 1.45 ± 0.038 | 1.54 ± 0.047 | 1.58 ± 0.082 | 1.56 ± 0.034
YIIQGSNTNDNISIITL [RGR1] | 2.77 ± 0.075 | 2.29 ± 0.083 | 2.19 ± 0.15 | 2.22 ± 0.063
YIKNILEAPVKSIENPT [YLR335W/NUP2] | 2.38 ± 0.061 | 2.33 ± 0.063 | 2.19 ± 0.084 | 2.13 ± 0.057
YISFIKDDRFVPVRKFK [RPN2] | 2.41 ± 0.048 | 2.82 ± 0.039 | 2.96 ± 0.041 | 2.85 ± 0.031
YISKIGEKIDSNKPIFL [SWI1] | 3.02 ± 0.084 | 2.86 ± 0.06 | 3.01 ± 0.07 | 3.19 ± 0.09
YITLKATFLKDDLPYYV [QCR2] | 2.42 ± 0.047 | 2.17 ± 0.049 | 2.51 ± 0.054 | 2.44 ± 0.039
YKAQADTFYMNVESVGS [RPB3] | 2.75 ± 0.088 | 2.34 ± 0.058 | 2.98 ± 0.068 | 3.07 ± 0.079
YKCTAAMEKYLLSKSKI [MTW1] | 2.21 ± 0.038 | 2.58 ± 0.056 | 2.44 ± 0.049 | 2.69 ± 0.03
YKEIRDVSRVAAVETLY [RPL20A] | 1.95 ± 0.067 | 2.19 ± 0.081 | 1.75 ± 0.17 | 1.64 ± 0.069
YKKSTENESTNYQYKIQ [MED7] | 2.58 ± 0.046 | 2.48 ± 0.045 | 2.41 ± 0.055 | 2.59 ± 0.035
YKNHELLKLERKKTEAV [SNF2] | 3.14 ± 0.081 | 3.17 ± 0.074 | 3.08 ± 0.05 | 3.13 ± 0.064
YLADDIDADSLEDIYTS [RPL5] | 2.68 ± 0.095 | 1.96 ± 0.08 | 2 ± 0.08 | 2.37 ± 0.065
YLEELQRKKQSDVLRFL [RPL15A] | 1.38 ± 0.16 | 2.25 ± 0.21 | 1.72 ± 0.26 | 1.5 ± 0.097
YLHQNWVLHRDLKPANI [SSN3] | 2.23 ± 0.12 | 2.74 ± 0.13 | 2.72 ± 0.23 | 2.38 ± 0.14
YLINGKRFKRKDNAKIS [SRP68] | 1.36 ± 0.075 | 1.58 ± 0.096 | 1.75 ± 0.12 | 1.63 ± 0.049
YLKDNITLLTRQRELLI [GRR1] | 2.15 ± 0.061 | 2.25 ± 0.069 | 1.84 ± 0.076 | 1.76 ± 0.052

Sequence | protein stability index (doa10∆) | protein stability index (pdr5∆) | protein stability index (san1∆) | protein stability index (ubr1∆)
YLLTQQQIWKSPNFKNY [SOH1] | 1.73 ± 0.047 | 1.62 ± 0.05 | 1.18 ± 0.081 | 2.19 ± 0.03
YLQETAISGKKTTYYYY [RPC82] | 2.77 ± 0.079 | 3.02 ± 0.14 | 2.84 ± 0.057 | 3.07 ± 0.075
YMDCLLYDLRASYAKIE [SNU114] | 1.84 ± 0.074 | 2.32 ± 0.076 | 1.81 ± 0.095 | 1.74 ± 0.092
YMQRTVEEAHDFNMKLA [RPB2] | 3.09 ± 0.098 | 3.04 ± 0.1 | 3.02 ± 0.075 | 2.99 ± 0.062
YMRKQVGVGKLNKLYGG [RPS19A] | 2.99 ± 0.16 | 2.48 ± 0.17 | 2.89 ± 0.14 | 3.41 ± 0.12
YNILGNLGIPKIAYRGV [SSN2] | 2.55 ± 0.12 | 2.48 ± 0.12 | 1.55 ± 0.25 | 1.89 ± 0.1
YNMYDAYGNWFNGLKPL [PRP8] | 2.93 ± 0.06 | 3.36 ± 0.093 | 2.9 ± 0.11 | 3.13 ± 0.048
YNTRKNAVTAAAANNNI [GAL11] | 2.19 ± 0.046 | 2.52 ± 0.044 | 2.67 ± 0.05 | 2.46 ± 0.029
YPLLIRMSYGSHDKKTK [SRP14] | 2.61 ± 0.06 | 2.49 ± 0.069 | 2.57 ± 0.043 | 2.6 ± 0.053
YPLWVMAKQLIRLANES [CSN12] | 2.08 ± 0.07 | 1.41 ± 0.047 | 1.34 ± 0.17 | 1.4 ± 0.059
YPSKTLKTDGVRAVSIT [FAS2] | 2.12 ± 0.078 | 2.3 ± 0.087 | 2 ± 0.091 | 2.23 ± 0.061
YPVRIPRLDTSKEFSAY [YJR042W/NUP85] | 2.84 ± 0.077 | 2.4 ± 0.061 | 2.51 ± 0.075 | 2.91 ± 0.058
YQELFIQPKNSDDQQEA [YML103C/NUP188] | 2.68 ± 0.066 | 2.31 ± 0.061 | 2.71 ± 0.053 | 2.64 ± 0.054
YQKKQYKDSLALINDLL [RPN6] | 2.4 ± 0.26 | 2.68 ± 0.19 | 1.82 ± 0.21 | 2.86 ± 0.13
YQLNDRNVTKGDIVRML [SMC3] | 2.72 ± 0.24 | 3.03 ± 0.17 | 2.84 ± 0.14 | 3.02 ± 0.11
YQSLKQIVQVLKQPPFQ [SSN8] | 1.43 ± 0.082 | 2.22 ± 0.11 |  | 1.46 ± 0.097
YQSRGIDAMKAVAEAYN [RPN6] | 2.87 ± 0.088 | 3.1 ± 0.083 | 2.81 ± 0.077 | 2.65 ± 0.045
YQTRARQKARTDAHTPL [RPR2] | 3.29 ± 0.1 | 3.14 ± 0.09 | 3.32 ± 0.058 | 3.27 ± 0.078
YQVDEDVKSSLSKVFSD [YJL039C/NUP192] | 3.23 ± 0.17 | 3.42 ± 0.14 | 3.33 ± 0.17 | 2.93 ± 0.22
YQVEYAFKATNQTNINS [SCL1] | 2.97 ± 0.072 | 3.19 ± 0.056 | 2.99 ± 0.081 | 3.06 ± 0.073
YQWRDLIARRDDESPRF [RRP6] | 3.23 ± 0.077 | 3.42 ± 0.067 | 3.24 ± 0.057 | 3.26 ± 0.068
YRKTEGIFEKAKAKAVT [YMR153W/NUP53] | 2.56 ± 0.09 | 2.54 ± 0.12 | 2.65 ± 0.13 | 2.48 ± 0.075
YRPLTPSSEVYSPIEKE [RRP6] | 2.74 ± 0.071 | 3.03 ± 0.064 | 2.69 ± 0.073 | 2.91 ± 0.066
YRSHIFATNEERQMNFL [SWI3] | 3.24 ± 0.091 | 2.69 ± 0.081 | 2.59 ± 0.081 | 2.72 ± 0.051
YSEHLKPYDINVVLVTN [DIS3] | 1.77 ± 0.071 | 2.98 ± 0.094 | 2.86 ± 0.066 | 2.47 ± 0.055
